T1: his-tagged human PVRIG (h-PVRIG-his) recombinant protein (human, UniProt Q6DKI7 41-171, limits assumed)
T1 construct: Acrobiosystems; also called Human PVRIG-his; human PVRIG recombinant protein; not shown: his tag
T1 sequence (looked up): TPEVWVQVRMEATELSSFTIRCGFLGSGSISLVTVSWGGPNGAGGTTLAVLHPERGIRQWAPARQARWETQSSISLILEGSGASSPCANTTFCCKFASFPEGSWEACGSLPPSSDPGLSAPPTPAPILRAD

T2: human TIGIT recombinant protein (human, UniProt Q495A1 22-141)
T2 construct: also called human TIGIT antigen (AcroBiosystem, TIT-H52H3); TIGIT protein
T2 sequence (looked up): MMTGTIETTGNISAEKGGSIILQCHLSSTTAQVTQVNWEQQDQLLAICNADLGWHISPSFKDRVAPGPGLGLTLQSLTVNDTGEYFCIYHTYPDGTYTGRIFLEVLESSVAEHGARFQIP

T3: human PVRIG expressed on cells (human, UniProt Q6DKI7 41-326)
T3 sequence (looked up): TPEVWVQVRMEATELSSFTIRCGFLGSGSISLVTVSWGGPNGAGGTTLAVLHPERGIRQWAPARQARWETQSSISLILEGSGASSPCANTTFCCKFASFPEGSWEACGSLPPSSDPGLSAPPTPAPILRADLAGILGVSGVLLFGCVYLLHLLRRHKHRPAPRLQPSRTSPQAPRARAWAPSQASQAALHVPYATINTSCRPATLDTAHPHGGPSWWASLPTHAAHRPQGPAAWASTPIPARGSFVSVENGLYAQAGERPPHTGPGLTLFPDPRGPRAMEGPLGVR


Legend:
[1] = target: T1, his-tagged human PVRIG (h-PVRIG-his) …; test: ELISA, plate coated with PVRIG protein (his tag)
Description: (§1) ELISA assays were performed. TIGIT or PVRIG protein (his tag, Acrobiosystems, PVG-H52H4) was dissolved in PBS to 1 μg/mL, and the solution was added to a 96-well plate at 100 μL/well. The plate was coated with the antigen overnight at 4° C. The plate was washed with PBST solution three times. PBST/1% BSA solution was added, and the plate was incubated at 37° C. for 1 h for blocking. After three washes with PBST solution, different concentrations of the trispecific antibodies (diluted with PBST/1% BSA solution) were added, and the plate was incubated at 37° C. for 1.5 h. The plate was washed with PBST solution three times. […] After three washes with PBST solution, TMB solution was added at 100 μL/well. After 5 min of reaction at room temperature, 50 μL of stop solution was added. OD450 values were measured using a microplate reader, and EC₅₀ was calculated.

[2] = target: T2, human TIGIT recombinant protein; test: ELISA, plate coated with TIGIT protein
Description: as §1

[3] = target: T4, human PD-1 expressed on cells (human, UniProt Q15116 25-288); test: cell-based or functional assay
[4] = target: T4, human PD-1 expressed on cells; test: cell-based or functional assay; remark: listed apart in the source
[5] = target: T3, human PVRIG expressed on cells; test: cell-based or functional assay
[6] = target: T4, human PD-1 expressed on cells; test: cell-based or functional assay; remark: listed apart in the source
[7] = target: T3, human PVRIG expressed on cells; test: FACS, HEK293F cells expressing human PVRIG
Description: A stably transfected HEK293F cell strain expressing the human PVRIG gene, a stably transfected CHO-K1 cell strain expressing the human TIGIT gene, and Jurkat cells expressing human PD-1 were used. The cell strain was inoculated into a 96-well plate at 2×10⁵ cells/well. The plate was centrifuged at 300 g for 5 min, and the supernatant was removed. 100 μL of test antibody was added, and the plate was incubated at 4° C. for 1 h. The plate was centrifuged, and the supernatant was removed. The plate was washed 3 times with 200 μL of wash buffer (PBS+2% FBS), and 100 μL of an Alexa Fluor 488-labeled anti-human IgG secondary antibody (Invitrogen, A-11013) diluted at 1:500 was added. The plate was incubated at 4° C. for 1 h. The plate was centrifuged, and the supernatant was removed. The plate was washed 3 times with 200 μL of wash buffer (PBS+2% FBS). The cells were resuspended in 100 μL of PBS and tested on a flow cytometer (BD FACS Calibur or BD FACS Canto_ II).

T4 sequence (Q15116 25-288 limits assumed): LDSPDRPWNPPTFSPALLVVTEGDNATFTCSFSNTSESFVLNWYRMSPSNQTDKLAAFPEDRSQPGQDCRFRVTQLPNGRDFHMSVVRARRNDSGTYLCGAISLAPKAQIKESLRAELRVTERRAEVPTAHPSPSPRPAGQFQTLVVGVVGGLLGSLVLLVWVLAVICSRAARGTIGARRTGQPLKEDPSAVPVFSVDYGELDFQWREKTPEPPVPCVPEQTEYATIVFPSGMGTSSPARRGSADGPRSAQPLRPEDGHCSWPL

| Binder | EC50 [1] [nM] | EC50 [2] [nM] | DC:T MLR result, 0.1 nM antibody (unit not given) [3] | DC:T MLR result, 1 nM antibody (unit not given) [3] | DC:T MLR result, 10 nM antibody (unit not given) [3] | DC:T MLR result, 100 nM antibody (unit not given) [3] | IC50, PD-1/PD-L1 NFAT reporter gene system [4] [nM] | EC50 [7] [nM] | EMAX [7] | further results |
| --- | --- | --- | --- | --- | --- | --- | --- | --- | --- | --- |
| A17h1-1708-30H2-D (trispecific antibody, human IgG4 S228P, kappa) heavy: not shown light: DIQMTQSPSSLSASVGDRVTITCRASENIYSYLAWYQQKPGKSPKLLIYNARTLAEGVPSRFSGSGSGTDFTLTISSLQPEDFATYYCQYHSGSPLPFGGGTKVEIKRTVAAPSVFIFPPSDEQLKSGTASVVCLLNNFYPREAKVQWKVDNALQSGNSQESVTEQDSKDSTYSLSSTLTLSKADYEKHKVYACEVTHQGLSSPVTKSFNRGECGGGGSGGGGSEVQLQESGGGLVQPGGSLRLSCTASGLTFSDYSMSWYRQAPGKGRELVAIISGSGVIAHYVDSVKGRFTISRDNSKNTVYLQMRSLTPEDRAVYYCRAVSDWDDYWGQGTQVTVSS | 0.0885 | 0.113 | 115 | 116 | 122 | 136 | 0.825 | – | – | – |
| 30H2 (Fc fusion, not shown: a dimerising Fc or GST) EVQLVESGGGLVQPGGSLRLSCAASGFTFSGDCMGWFRQAPGKGLDEGVATIDNAGRIKYADSVKGRFTISRDNAKNSLYLQMNSLRAEDTAVYYCAAGWTFGGQCSPADWGQGTQVTVSS | – | – | – | – | – | – | – | – | – | PVRIG reporter gene cell activity EC50 [5]: 0.176 nM |
| 30H3 (Fc fusion, not shown: a dimerising Fc or GST) EVQLVESGGGLVQPGGSLRLSCAASGYSYSGDCMGWFRQAPGKGLDEGVATIDNAGRIKYADSVKGRFTISRDNAKNSLYLQMNSLRAEDTAVYYCAAGWTFGGQCSPADWGQGTQVTVSS | – | – | – | – | – | – | – | – | – | PVRIG reporter gene cell activity EC50 [5]: 0.078 nM |
| A17h1-1708-30H2-B (trispecific antibody, human IgG4 S228P, kappa) heavy: not shown light: EVQLQESGGGLVQPGGSLRLSCTASGLTFSDYSMSWYRQAPGKGRELVAIISGSGVIAHYVDSVKGRFTISRDNSKNTVYLQMRSLTPEDRAVYYCRAVSDWDDYWGQGTQVTVSSGGGGSGGGGSDIQMTQSPSSLSASVGDRVTITCRASENIYSYLAWYQQKPGKSPKLLIYNARTLAEGVPSRFSGSGSGTDFTLTISSLQPEDFATYYCQYHSGSPLPFGGGTKVEIKRTVAAPSVFIFPPSDEQLKSGTASVVCLLNNFYPREAKVQWKVDNALQSGNSQESVTEQDSKDSTYSLSSTLTLSKADYEKHKVYACEVTHQGLSSPVTKSFNRGEC | 0.0583 | 0.107 | 108 | 137 | 125 | 134 | 0.344 | – | – | – |
| A17h1-1708-30H2-A (trispecific antibody, human IgG4 S228P, kappa) heavy: not shown light: DIQMTQSPSSLSASVGDRVTITCRASENIYSYLAWYQQKPGKSPKLLIYNARTLAEGVPSRFSGSGSGTDFTLTISSLQPEDFATYYCQYHSGSPLPFGGGTKVEIKRTVAAPSVFIFPPSDEQLKSGTASVVCLLNNFYPREAKVQWKVDNALQSGNSQESVTEQDSKDSTYSLSSTLTLSKADYEKHKVYACEVTHQGLSSPVTKSFNRGEC | 0.0589 | 0.0875 | 118 | 118 | 124 | 128 | 0.801 | – | – | – |
| A17m0902-1708-151H7-01-C (trispecific antibody, human IgG4 S228P, kappa, Type C; first residue of the 151H7 part changed from H to E; also called 151H7 H1E trispecific) heavy: not shown light: DIQMTQSPSSLSASVGDRVTITCRASENIYSYLAWYQQKPGKSPKLLIYNARTLAEGVPSRFSGSGSGTDFTLTISSLQPEDFATYYCQYHSGSPLPFGGGTKVEIKRTVAAPSVFIFPPSDEQLKSGTASVVCLLNNFYPREAKVQWKVDNALQSGNSQESVTEQDSKDSTYSLSSTLTLSKADYEKHKVYACEVTHQGLSSPVTKSFNRGEC | – | – | – | – | – | – | – | 0.105 | 1550 | – |
| A17h1-1708-30H2-C (trispecific antibody, human IgG4 S228P, kappa, Type C) heavy: not shown light: DIQMTQSPSSLSASVGDRVTITCRASENIYSYLAWYQQKPGKSPKLLIYNARTLAEGVPSRFSGSGSGTDFTLTISSLQPEDFATYYCQYHSGSPLPFGGGTKVEIKRTVAAPSVFIFPPSDEQLKSGTASVVCLLNNFYPREAKVQWKVDNALQSGNSQESVTEQDSKDSTYSLSSTLTLSKADYEKHKVYACEVTHQGLSSPVTKSFNRGEC | 0.0822 | 0.0951 | 133 | 131 | 123 | 149 | 0.264 | – | – | – |
| 151H7 (Fc fusion, not shown: a dimerising Fc or GST) HVQLVESGGGLVQPGGSLRLSCVASASGFTYRPYCMAWFRQAPGKEREAVAGIDIFGGTTYADSVKGRFTASRDNAGFSLYLQMNSLRAEDTAVYYCAAGDSPDGRCPPLGQGLNYWGQGTMVTVSS | – | – | – | – | – | – | – | – | – | PVRIG reporter gene cell activity EC50 [5]: 0.038 nM |

Second part, led by results:

| EC50 [1] [nM] | EC50 [2] [nM] | DC:T MLR result, 0.1 nM antibody (unit not given) [3] | DC:T MLR result, 1 nM antibody (unit not given) [3] | DC:T MLR result, 10 nM antibody (unit not given) [3] | DC:T MLR result, 100 nM antibody (unit not given) [3] | IC50, PD-1/PD-L1 NFAT reporter gene system [4] [nM] | EC50 [7] [nM] | EMAX [7] | Binder | further results |
| --- | --- | --- | --- | --- | --- | --- | --- | --- | --- | --- |
| 0.154 | – | 108 | 97.8 | 136 | 148 | – | – | – | A17h1-1708-151H7-B (trispecific antibody, human IgG4 S228P, kappa) heavy: not shown light: EVQLQESGGGLVQPGGSLRLSCTASGLTFSDYSMSWYRQAPGKGRELVAIISGSGVIAHYVDSVKGRFTISRDNSKNTVYLQMRSLTPEDRAVYYCRAVSDWDDYWGQGTQVTVSSGGGGSGGGGSDIQMTQSPSSLSASVGDRVTITCRASENIYSYLAWYQQKPGKSPKLLIYNARTLAEGVPSRFSGSGSGTDFTLTISSLQPEDFATYYCQYHSGSPLPFGGGTKVEIKRTVAAPSVFIFPPSDEQLKSGTASVVCLLNNFYPREAKVQWKVDNALQSGNSQESVTEQDSKDSTYSLSSTLTLSKADYEKHKVYACEVTHQGLSSPVTKSFNRGEC | IC50 (read off the curve) [6]: ~0.4 nM |
| 0.125 | – | – | – | – | – | – | 0.112 | 1360 | 1708-151H7 (bispecific antibody, human IgG4 S228P, kappa, Humanized anti-PVRIG/TIGIT) heavy: not shown light: DIQMTQSPSSLSASVGDRVTITCRASENIYSYLAWYQQKPGKSPKLLIYNARTLAEGVPSRFSGSGSGTDFTLTISSLQPEDFATYYCQYHSGSPLPFGGGTKVEIKRTVAAPSVFIFPPSDEQLKSGTASVVCLLNNFYPREAKVQWKVDNALQSGNSQESVTEQDSKDSTYSLSSTLTLSKADYEKHKVYACEVTHQGLSSPVTKSFNRGEC | – |
| 0.0846 | 0.116 | – | – | – | – | – | – | – | 1708-30H2 (bispecific antibody, human IgG4 S228P, kappa, Humanized anti-PVRIG/TIGIT) heavy: not shown light: DIQMTQSPSSLSASVGDRVTITCRASENIYSYLAWYQQKPGKSPKLLIYNARTLAEGVPSRFSGSGSGTDFTLTISSLQPEDFATYYCQYHSGSPLPFGGGTKVEIKRTVAAPSVFIFPPSDEQLKSGTASVVCLLNNFYPREAKVQWKVDNALQSGNSQESVTEQDSKDSTYSLSSTLTLSKADYEKHKVYACEVTHQGLSSPVTKSFNRGEC | – |
| – | – | – | – | – | – | – | 0.0964 | 1520 | A17m0902-1708-151H7-02-C (trispecific antibody, human IgG4 S228P, kappa, Type C; first residue of the 151H7 part changed from H to Q; also called 151H7 H1Q trispecific) heavy: not shown light: DIQMTQSPSSLSASVGDRVTITCRASENIYSYLAWYQQKPGKSPKLLIYNARTLAEGVPSRFSGSGSGTDFTLTISSLQPEDFATYYCQYHSGSPLPFGGGTKVEIKRTVAAPSVFIFPPSDEQLKSGTASVVCLLNNFYPREAKVQWKVDNALQSGNSQESVTEQDSKDSTYSLSSTLTLSKADYEKHKVYACEVTHQGLSSPVTKSFNRGEC | – |
| – | – | – | – | – | – | – | 0.0944 | 1520 | A17m0902-1708-151H7-C (trispecific antibody, human IgG4 S228P, kappa, Type C; also called A17m0902-151H7-C) heavy: not shown light: DIQMTQSPSSLSASVGDRVTITCRASENIYSYLAWYQQKPGKSPKLLIYNARTLAEGVPSRFSGSGSGTDFTLTISSLQPEDFATYYCQYHSGSPLPFGGGTKVEIKRTVAAPSVFIFPPSDEQLKSGTASVVCLLNNFYPREAKVQWKVDNALQSGNSQESVTEQDSKDSTYSLSSTLTLSKADYEKHKVYACEVTHQGLSSPVTKSFNRGEC | – |
